Details in all cases: both partners purified
Assay [1] deals with T1, human tapasin, lumenal domain (Gly1-Glu381), as used in the SPR experiments with the PaSta Fabs (Homo sapiens (human)).
T1 construct: human tapasin, lumenal domain, residues Gly1 to Glu381; the construct encodes the signal peptide too, the protein is secreted; for the SPR with the Fabs nothing is said; also called TPN; source: Drosophila S2 cells, purified from culture medium (chelate agarose, SEC, anion exchange)
T1 chain: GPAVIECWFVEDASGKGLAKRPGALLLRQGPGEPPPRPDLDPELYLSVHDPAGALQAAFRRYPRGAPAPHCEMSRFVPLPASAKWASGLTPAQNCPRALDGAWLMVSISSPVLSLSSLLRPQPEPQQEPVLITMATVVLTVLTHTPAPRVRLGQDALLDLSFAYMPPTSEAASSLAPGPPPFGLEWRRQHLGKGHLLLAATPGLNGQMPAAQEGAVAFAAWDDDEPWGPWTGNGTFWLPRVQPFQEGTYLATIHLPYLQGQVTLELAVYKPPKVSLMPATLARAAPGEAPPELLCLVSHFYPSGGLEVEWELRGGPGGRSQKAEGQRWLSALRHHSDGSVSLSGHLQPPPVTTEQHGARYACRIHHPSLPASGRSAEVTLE
The assay can be described thus: SPR; PaSta2 Fab (panel c) or PaSta1 Fab (panel d) immobilised on a CM5 chip, tapasin captured on it, the other Fab injected at 62.5 to 4000 nM; fit to a 1:1 binding model (BiaEval 3.1); 25 °C, 10 mM HEPES pH 7.4, 150 mM NaCl, 3 mM EDTA, 0.05% Surfactant P20, 30 µL/min. On the technique in general: Surface plasmon resonance follows binding to a sensor surface in real time, without labels.

Assay [2] addresses T2, human tapasin lumenal domain (Gly1-Glu381), BirA and 6X His sequences removed with 3C protease (human, UniProt O15533).
T2 construct: Residues of the 3C site may remain at the C-terminus after cleavage; source: Drosophila S2 cells, purified from the culture media (chelate agarose, SEC, anion exchange), treated with 3C protease; not shown: 6X HIS, C-terminal, cleaved
The assay can be described thus: crystal structure; tapasin–PaSta1 Fab complex, PDB 7TUF, 2.8 Å; crystals grown in 10% PEG 4000, 0.1 M Hepes, pH 7.5.

Assay [3] deals with T3, human tapasin lumenal domain (Gly1-Glu381), state of the C-terminal tags not stated (human, UniProt O15533).
T3 construct: Tapasin as injected over the Fab surfaces in SPR and as added in the NMR experiments; source: Drosophila S2 cells, purified from the culture media (chelate agarose, SEC, anion exchange)
The assay is described as follows: SPR; Fab of PaSta1 or PaSta2 covalently coupled onto CM5 chips (about 200 RU); tapasin 0.06 µM to 4 µM injected; 25 °C; 10 mM HEPES pH 7.4, 150 mM NaCl, 3 mM EDTA, 0.05% Surfactant P20; 30 µL/min; 1:1 binding model.

Assay [4] addresses parental HLA-B*44:05 refolded with hβ2m and the peptide … (human | ). The assay is described as follows: SPR; biotinylated tapasin captured (200 RU) on a streptavidin chip; MHC-I offered in graded concentrations (15.6 nM to 500 nM for B44:02–9mer and B44:05-T73C–6mer, 1 µM to 16 µM for B44:05–9mer); 25 °C; 10 mM HEPES pH 7.4, 150 mM NaCl, 3 mM EDTA, 0.05% Surfactant P20; 30 µL/min; global fit to a 1:1 binding model; n = 3.

Assay [5] has as its target T2, human tapasin lumenal domain …. The assay can be described thus: crystal structure; tapasin–PaSta2 Fab complex, PDB 7TUG, 3.9 Å; crystals grown in 17% PEG 10000, 0.1 M Bis-Tris, pH 5.5, 0.1 M Am acetate.

Residue numbers refer to the chain shown, from its start.

B1: PaSta1 Fab (anti-tapasin monoclonal antibody PaSta1) (Fab, V domains shown)
VH: DVQLQESGPGLVIPSQSLSLTCTVTGYSITTDYAWNWIRQFPGNRLEWMGYISSSGVTVYNPSLKSRISITRDTSKNQFFLQLISVTTEDTATYYCARRGYYRYDSIDYWGQGTTLTVSS
VL: QIVLSQSPAILSASPGEKVTMTCRATSSVSYIHWYQQKPGSSPKPWIYATSSLTSGVPVRFSGSGSGTSYSLTISRVEAEDAATYYCQQWSSNPPTFGGGTKLEIK
notes: heavy chain of the Fab in PDB 7TUF (ends after the second cysteine of the hinge, then His6); light chain of the Fab in PDB 7TUF; also called Pt1; Pt1H; source: Expi293F, transfected, purified from culture supernatant (TALON, SEC)
For the molecule B1, in assay [1], the Kd (commonly the equilibrium constant for the complex coming apart) worked out at 1.1 nM.

B2: Fab fragment of the anti-tapasin monoclonal antibody PaSta1 (Fab, V domains shown)
VH: B1 VH
VL: B1 VL
notes: H chain of PaSta1 in PDB 7TUF (deposited here); the Fab H chain ends after the second cysteine in the hinge region, followed by the 6X HIS tag; L chain of PaSta1 in PDB 7TUF (deposited here); The L chain search model had VL and Cκ; also called PaSta1 (Fab); Pt1; source: Expi293F cells, transfected, purified from culture supernatants (TALON, SEC)
Turning to B2, the binding result in assay [2] and in assay [3] was “binds” each time.

B3: human tapasin lumenal domain (Gly1-Glu381), biotinylated at its C-terminal BirA sequence (domain or fragment, UniProt O15533 21-401, looked up)
chain: T1 chain with R240T
modifications: biotin at the C-terminal BirA sequence
notes: Tapasin as captured on the streptavidin chip for SPR; also called biotinylated tapasin; source: Drosophila S2 cells, purified from the culture media (chelate agarose, SEC, anion exchange)
Consider B3, for which the Kd in assay [4] was determined as 1310 nM.

B4: PaSta2 Fab (anti-tapasin monoclonal antibody PaSta2) (Fab, V domains shown)
VH: QVQLQQSGAELVRPGTSVKMSCKAAGYTFTNYWIGWIKQRPGHGLEWIGDIYPGGGYTNYNEKFKVKATLTADTSSVTAYMQLSSLTSEDSAIYYCTREGNYGFAYWGQGTLVTVSA
VL: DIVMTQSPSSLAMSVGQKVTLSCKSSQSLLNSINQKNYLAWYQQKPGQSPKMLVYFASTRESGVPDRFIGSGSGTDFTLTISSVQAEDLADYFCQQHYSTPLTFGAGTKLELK
notes: heavy chain of the Fab in PDB 7TUG and 7TUH (ends after the second cysteine of the hinge, then His6); light chain of the Fab in PDB 7TUG and 7TUH; also called Pt2; Pt2H; source: Expi293F, transfected, purified from culture supernatant (TALON, SEC)
Molecule B4 returned a Kd in assay [1] of 1.6 nM.

B5: Fab fragment of the anti-tapasin monoclonal antibody PaSta2 (Fab, V domains shown)
VH: B4 VH
VL: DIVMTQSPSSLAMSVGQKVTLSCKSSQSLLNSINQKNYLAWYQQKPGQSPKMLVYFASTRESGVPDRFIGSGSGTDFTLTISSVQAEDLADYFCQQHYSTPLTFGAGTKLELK
notes: H chain of PaSta2 in PDB 7TUG and 7TUH (deposited here); the Fab H chain ends after the second cysteine in the hinge region, followed by the 6X HIS tag; L chain of PaSta2 in PDB 7TUG and 7TUH (deposited here); also called PaSta2 (Fab); Pt2; source: Expi293F cells, transfected, purified from culture supernatants (TALON, SEC)
For B5, the binding result in assay [5] and in assay [3] was “binds” in each case.

Values taken from publication PMC9482634, “Structural mechanism of tapasin-mediated MHC-I peptide loading in antigen presentation” (Nature Communications, 2022).
